Test system: Escherichia coli TOP10
Experiment: shrunken log2 fold change of peptide-encoding DNA abundance (4.5 h post-induction vs induction); higher = less antimicrobial activity (less host growth inhibition)
Conditions: time post-induction: 4.5 h; library: site-saturation at positions 5, 18, 19, 20
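Note: peptides expressed intracellularly from a pBAD plasmid library in pooled LB shake-flask culture, induced with 0.3% L-arabinose, DNA abundance read by NGS, three biological replicates, DESeq2 with apeglm shrinkage.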

| Sequence | shrunken log2 fold change |
| --- | --- |
| RRIRYRPPRLPRPRPRPKEDPRP | -0.122 |
| RRIRYRPPRLPRPRPRPKEGPRP | -0.186 |
| RRIRYRPPRLPRPRPRPKEHPRP | -0.366 |
| RRIRYRPPRLPRPRPRPKFFPRP | 0.131 |
| RRIRYRPPRLPRPRPRPKGMPRP | -0.111 |
| RRIRYRPPRLPRPRPRPKIGPRP | -0.177 |
| RRIRYRPPRLPRPRPRPKIQPRP | -0.68 |
| RRIRYRPPRLPRPRPRPKKLPRP | -0.647 |
| RRIRYRPPRLPRPRPRPKNNPRP | -1.02 |
| RRIRYRPPRLPRPRPRPKPDPRP | 0.0117 |
| RRIRYRPPRLPRPRPRPKQWPRP | 0.0575 |
| RRIRYRPPRLPRPRPRPKSYPRP | -0.101 |
| RRIRYRPPRLPRPRPRPKTFPRP | -0.251 |
| RRIRYRPPRLPRPRPRPKVKPRP | -0.233 |
| RRIRYRPPRLPRPRPRPKWCPRP | -0.00875 |
| RRIRYRPPRLPRPRPRPKYNPRP | -1.24 |
| RRIRYRPPRLPRPRPRPKYWPRP | -0.726 |
| RRIRYRPPRLPRPRPRPLCVPRP | -0.722 |
| RRIRYRPPRLPRPRPRPLDEPRP | 3.09 |
| RRIRYRPPRLPRPRPRPLDHPRP | -0.119 |
| RRIRYRPPRLPRPRPRPLDSPRP | -0.403 |
| RRIRYRPPRLPRPRPRPLFFPRP | -0.751 |
| RRIRYRPPRLPRPRPRPLFLPRP | -0.171 |
| RRIRYRPPRLPRPRPRPLGLPRP | -0.126 |
| RRIRYRPPRLPRPRPRPLGWPRP | 0.0401 |

| Sequence | shrunken log2 fold change |
| --- | --- |
| RRIRYRPPRLPRPRPRPLHMPRP | -0.116 |
| RRIRYRPPRLPRPRPRPLIAPRP | -0.668 |
| RRIRYRPPRLPRPRPRPLIEPRP | -0.442 |
| RRIRYRPPRLPRPRPRPLKRPRP | -0.234 |
| RRIRYRPPRLPRPRPRPLLDPRP | -0.296 |
| RRIRYRPPRLPRPRPRPLLMPRP | -0.547 |
| RRIRYRPPRLPRPRPRPLMHPRP | -1.02 |
| RRIRYRPPRLPRPRPRPLNAPRP | -0.859 |
| RRIRYRPPRLPRPRPRPLPCPRP | -0.413 |
| RRIRYRPPRLPRPRPRPLPVPRP | -0.142 |
| RRIRYRPPRLPRPRPRPLQHPRP | -0.688 |
| RRIRYRPPRLPRPRPRPLQTPRP | 0.0147 |
| RRIRYRPPRLPRPRPRPLRDPRP | 0.0739 |
| RRIRYRPPRLPRPRPRPLSCPRP | -0.0548 |
| RRIRYRPPRLPRPRPRPLVAPRP | -0.274 |
| RRIRYRPPRLPRPRPRPLVGPRP | -0.457 |
| RRIRYRPPRLPRPRPRPLWLPRP | 0.0113 |
| RRIRYRPPRLPRPRPRPMAYPRP | -0.0189 |
| RRIRYRPPRLPRPRPRPMDKPRP | -0.432 |
| RRIRYRPPRLPRPRPRPMEPPRP | -0.0132 |
| RRIRYRPPRLPRPRPRPMHFPRP | -0.00783 |
| RRIRYRPPRLPRPRPRPMICPRP | -0.0731 |
| RRIRYRPPRLPRPRPRPMILPRP | -0.287 |
| RRIRYRPPRLPRPRPRPMKDPRP | -0.317 |
| RRIRYRPPRLPRPRPRPMKIPRP | -0.0574 |

| Sequence | shrunken log2 fold change |
| --- | --- |
| RRIRYRPPRLPRPRPRPMKKPRP | 0.0048 |
| RRIRYRPPRLPRPRPRPMLIPRP | -0.767 |
| RRIRYRPPRLPRPRPRPMMHPRP | -0.626 |
| RRIRYRPPRLPRPRPRPMPIPRP | -0.16 |
| RRIRYRPPRLPRPRPRPMRFPRP | 0.0781 |
| RRIRYRPPRLPRPRPRPMRSPRP | -0.0201 |
| RRIRYRPPRLPRPRPRPMVWPRP | -0.0211 |
| RRIRYRPPRLPRPRPRPNANPRP | -2 |
| RRIRYRPPRLPRPRPRPNAWPRP | -0.165 |
| RRIRYRPPRLPRPRPRPNCYPRP | -0.0166 |
| RRIRYRPPRLPRPRPRPNDIPRP | -0.299 |
| RRIRYRPPRLPRPRPRPNDMPRP | -1.16 |
| RRIRYRPPRLPRPRPRPNDNPRP | -0.635 |
| RRIRYRPPRLPRPRPRPNEGPRP | -0.363 |
| RRIRYRPPRLPRPRPRPNFAPRP | 0.137 |
| RRIRYRPPRLPRPRPRPNFKPRP | 0.633 |
| RRIRYRPPRLPRPRPRPNFYPRP | -0.689 |
| RRIRYRPPRLPRPRPRPNGCPRP | -0.000687 |
| RRIRYRPPRLPRPRPRPNGEPRP | -0.0103 |
| RRIRYRPPRLPRPRPRPNGQPRP | -0.0885 |
| RRIRYRPPRLPRPRPRPNHTPRP | -0.259 |
| RRIRYRPPRLPRPRPRPNKRPRP | -0.75 |
| RRIRYRPPRLPRPRPRPNLCPRP | -1.35 |
| RRIRYRPPRLPRPRPRPNLHPRP | -0.821 |
| RRIRYRPPRLPRPRPRPNMQPRP | -0.594 |

| Sequence | shrunken log2 fold change |
| --- | --- |
| RRIRYRPPRLPRPRPRPNMYPRP | -0.411 |
| RRIRYRPPRLPRPRPRPNNGPRP | -0.156 |
| RRIRYRPPRLPRPRPRPNNLPRP | -0.582 |
| RRIRYRPPRLPRPRPRPNNSPRP | -0.52 |
| RRIRYRPPRLPRPRPRPNQDPRP | -0.406 |
| RRIRYRPPRLPRPRPRPNQQPRP | -0.0105 |
| RRIRYRPPRLPRPRPRPNRPPRP | 0.000655 |
| RRIRYRPPRLPRPRPRPNTLPRP | -0.704 |
| RRIRYRPPRLPRPRPRPNVFPRP | 0.0662 |
| RRIRYRPPRLPRPRPRPNVGPRP | -0.00664 |
| RRIRYRPPRLPRPRPRPPCGPRP | -0.406 |
| RRIRYRPPRLPRPRPRPPCLPRP | -0.288 |
| RRIRYRPPRLPRPRPRPPCMPRP | -0.315 |
| RRIRYRPPRLPRPRPRPPCQPRP | -0.212 |
| RRIRYRPPRLPRPRPRPPETPRP | -0.0226 |
| RRIRYRPPRLPRPRPRPPGCPRP | 0.334 |
| RRIRYRPPRLPRPRPRPPGDPRP | 0.152 |
| RRIRYRPPRLPRPRPRPPGNPRP | -0.0342 |
| RRIRYRPPRLPRPRPRPPHDPRP | -0.383 |
| RRIRYRPPRLPRPRPRPPHEPRP | -0.125 |
| RRIRYRPPRLPRPRPRPPHLPRP | -0.52 |
| RRIRYRPPRLPRPRPRPPHQPRP | 0.378 |
| RRIRYRPPRLPRPRPRPPIAPRP | 0.00572 |
| RRIRYRPPRLPRPRPRPPKRPRP | -0.121 |
| RRIRYRPPRLPRPRPRPPLDPRP | 0.443 |

| Sequence | shrunken log2 fold change |
| --- | --- |
| RRIRYRPPRLPRPRPRPPNRPRP | -0.0643 |
| RRIRYRPPRLPRPRPRPPPKPRP | 1.24 |
| RRIRYRPPRLPRPRPRPPQCPRP | -0.32 |
| RRIRYRPPRLPRPRPRPPSKPRP | -0.409 |
| RRIRYRPPRLPRPRPRPPSWPRP | 0.133 |
| RRIRYRPPRLPRPRPRPPTLPRP | -0.274 |
| RRIRYRPPRLPRPRPRPPYGPRP | -0.54 |
| RRIRYRPPRLPRPRPRPQANPRP | -0.694 |
| RRIRYRPPRLPRPRPRPQAPPRP | -0.0309 |
| RRIRYRPPRLPRPRPRPQCPPRP | -0.15 |
| RRIRYRPPRLPRPRPRPQCWPRP | -0.321 |
| RRIRYRPPRLPRPRPRPQDFPRP | -0.481 |
| RRIRYRPPRLPRPRPRPQGLPRP | 0.0179 |
| RRIRYRPPRLPRPRPRPQHDPRP | -1.4 |
| RRIRYRPPRLPRPRPRPQIMPRP | -0.705 |
| RRIRYRPPRLPRPRPRPQIYPRP | -0.132 |
| RRIRYRPPRLPRPRPRPQNWPRP | -0.611 |
| RRIRYRPPRLPRPRPRPQPDPRP | -0.0504 |
| RRIRYRPPRLPRPRPRPQPKPRP | -0.0232 |
| RRIRYRPPRLPRPRPRPQQGPRP | -0.34 |
| RRIRYRPPRLPRPRPRPQQNPRP | -0.421 |
| RRIRYRPPRLPRPRPRPQQQPRP | 0.00548 |
| RRIRYRPPRLPRPRPRPQQSPRP | -0.454 |
| RRIRYRPPRLPRPRPRPQRPPRP | 0.376 |
| RRIRYRPPRLPRPRPRPQSRPRP | -0.17 |

| Sequence | shrunken log2 fold change |
| --- | --- |
| RRIRYRPPRLPRPRPRPQTLPRP | -0.088 |
| RRIRYRPPRLPRPRPRPQTYPRP | -0.755 |
| RRIRYRPPRLPRPRPRPQWAPRP | -0.00681 |
| RRIRYRPPRLPRPRPRPQWIPRP | 0.00701 |
| RRIRYRPPRLPRPRPRPQWSPRP | -0.0453 |
| RRIRYRPPRLPRPRPRPQWTPRP | -0.0155 |
| RRIRYRPPRLPRPRPRPQYFPRP | -1.64 |
| RRIRYRPPRLPRPRPRPRAAPRP | -0.0447 |
| RRIRYRPPRLPRPRPRPRAEPRP | -0.162 |
| RRIRYRPPRLPRPRPRPRCDPRP | -0.207 |
| RRIRYRPPRLPRPRPRPRCGPRP | -0.0223 |
| RRIRYRPPRLPRPRPRPRCPPRP | -0.167 |
| RRIRYRPPRLPRPRPRPRDDPRP | -0.241 |
| RRIRYRPPRLPRPRPRPRDVPRP | -0.0023 |
| RRIRYRPPRLPRPRPRPRKEPRP | 0.00543 |
| RRIRYRPPRLPRPRPRPRKWPRP | 0.149 |
| RRIRYRPPRLPRPRPRPRLCPRP | -0.0154 |
| RRIRYRPPRLPRPRPRPRMFPRP | -0.306 |
| RRIRYRPPRLPRPRPRPRMLPRP | -1.08 |
| RRIRYRPPRLPRPRPRPRQLPRP | -0.0472 |
| RRIRYRPPRLPRPRPRPRQQPRP | 0.226 |
| RRIRYRPPRLPRPRPRPRQYPRP | 0.0153 |
| RRIRYRPPRLPRPRPRPRRNPRP | -0.268 |
| RRIRYRPPRLPRPRPRPRSFPRP | -0.0868 |
| RRIRYRPPRLPRPRPRPRTDPRP | -0.0428 |

From the supplement of paper PMC9112550, “Optimization of the antimicrobial peptide Bac7 by deep mutational scanning” (BMC Biology, 2022)
